Consider four molecules from US20230366033A1 (University of Texas, published 2023).

In experiment [1] the target is T1, Human MRE11 core (residues 1-411), bacterially expressed and purified (human, UniProt P49959 1-411).
T1 construct: range 1-411; the only purified MRE11 described is the 1-411 core; also called human MRE11 (residue 1-411); bacterially purified MRE11
T1 sequence (looked up): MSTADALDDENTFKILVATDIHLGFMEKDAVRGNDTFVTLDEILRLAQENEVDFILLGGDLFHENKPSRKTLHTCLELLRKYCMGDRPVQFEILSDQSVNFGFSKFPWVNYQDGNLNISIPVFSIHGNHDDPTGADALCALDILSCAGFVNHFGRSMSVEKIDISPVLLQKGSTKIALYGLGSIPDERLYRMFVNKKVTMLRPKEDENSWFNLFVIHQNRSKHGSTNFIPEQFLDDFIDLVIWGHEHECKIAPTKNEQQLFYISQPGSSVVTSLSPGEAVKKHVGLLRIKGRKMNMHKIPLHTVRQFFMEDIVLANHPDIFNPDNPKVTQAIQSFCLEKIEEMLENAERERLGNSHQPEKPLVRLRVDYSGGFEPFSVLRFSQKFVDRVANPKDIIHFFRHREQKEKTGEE
Description: GST pull-down of bacterially expressed, purified human MRE11, western blot [panel C]. In general terms: Immunoblotting shows a protein as a band on a membrane.

For experiment [2], the target named is T2, GRB2 K109R mutant, bacterially expressed and purified (UniProt P62993 1-217, Atto488 label in MST).
T2 construct: domain: full-length; also called K109RGRB2; K109R GRB2 mutant
Description: MST, 100 nM Atto488-labelled K109R GRB2, peptide titrated.
Description: (§1) Microscale thermophoresis. […] The Kd values were measured using the Monolith NT.115 system (Nano Temper). […] The samples were loaded into silica capillaries (Polymicro Technologies) after incubation at room temperature for 15 min. Measurements were performed at 22° C. using 20% LED power and 40% IR-laser power. Measurements were also carried out using 20% and 60% IR-laser power for comparison. Data analyses were performed using Nano Temper Analysis software using the Kd curve fitting function. Raw data were exported and fitting curves were generated using Prism 8 (GraphPad Software) for presentation.

The target in experiment [3] is T3, GRB2-SH2 domain, purified, Atto488-labelled (UniProt P62993 60-152, limits assumed, Atto488 label).
T3 construct: domain: SH2; Individual GRB2 domains generated as described before (Ahmed et al., 2010)
Description: MST; 100 nM Atto488-labelled GRB2-SH2 domain, peptide titrated; unphosphorylated MRE11 peptide.
Description: as §1

Experiment [4] deals with T4, Flag-tagged POLQ (polymerase theta) overexpressed in HEK293T cells (UniProt O75417 1-2590, limits assumed).
T4 construct: also called Flag-POLQ; not shown: Flag tag
T4 sequence (O75417 whole entry): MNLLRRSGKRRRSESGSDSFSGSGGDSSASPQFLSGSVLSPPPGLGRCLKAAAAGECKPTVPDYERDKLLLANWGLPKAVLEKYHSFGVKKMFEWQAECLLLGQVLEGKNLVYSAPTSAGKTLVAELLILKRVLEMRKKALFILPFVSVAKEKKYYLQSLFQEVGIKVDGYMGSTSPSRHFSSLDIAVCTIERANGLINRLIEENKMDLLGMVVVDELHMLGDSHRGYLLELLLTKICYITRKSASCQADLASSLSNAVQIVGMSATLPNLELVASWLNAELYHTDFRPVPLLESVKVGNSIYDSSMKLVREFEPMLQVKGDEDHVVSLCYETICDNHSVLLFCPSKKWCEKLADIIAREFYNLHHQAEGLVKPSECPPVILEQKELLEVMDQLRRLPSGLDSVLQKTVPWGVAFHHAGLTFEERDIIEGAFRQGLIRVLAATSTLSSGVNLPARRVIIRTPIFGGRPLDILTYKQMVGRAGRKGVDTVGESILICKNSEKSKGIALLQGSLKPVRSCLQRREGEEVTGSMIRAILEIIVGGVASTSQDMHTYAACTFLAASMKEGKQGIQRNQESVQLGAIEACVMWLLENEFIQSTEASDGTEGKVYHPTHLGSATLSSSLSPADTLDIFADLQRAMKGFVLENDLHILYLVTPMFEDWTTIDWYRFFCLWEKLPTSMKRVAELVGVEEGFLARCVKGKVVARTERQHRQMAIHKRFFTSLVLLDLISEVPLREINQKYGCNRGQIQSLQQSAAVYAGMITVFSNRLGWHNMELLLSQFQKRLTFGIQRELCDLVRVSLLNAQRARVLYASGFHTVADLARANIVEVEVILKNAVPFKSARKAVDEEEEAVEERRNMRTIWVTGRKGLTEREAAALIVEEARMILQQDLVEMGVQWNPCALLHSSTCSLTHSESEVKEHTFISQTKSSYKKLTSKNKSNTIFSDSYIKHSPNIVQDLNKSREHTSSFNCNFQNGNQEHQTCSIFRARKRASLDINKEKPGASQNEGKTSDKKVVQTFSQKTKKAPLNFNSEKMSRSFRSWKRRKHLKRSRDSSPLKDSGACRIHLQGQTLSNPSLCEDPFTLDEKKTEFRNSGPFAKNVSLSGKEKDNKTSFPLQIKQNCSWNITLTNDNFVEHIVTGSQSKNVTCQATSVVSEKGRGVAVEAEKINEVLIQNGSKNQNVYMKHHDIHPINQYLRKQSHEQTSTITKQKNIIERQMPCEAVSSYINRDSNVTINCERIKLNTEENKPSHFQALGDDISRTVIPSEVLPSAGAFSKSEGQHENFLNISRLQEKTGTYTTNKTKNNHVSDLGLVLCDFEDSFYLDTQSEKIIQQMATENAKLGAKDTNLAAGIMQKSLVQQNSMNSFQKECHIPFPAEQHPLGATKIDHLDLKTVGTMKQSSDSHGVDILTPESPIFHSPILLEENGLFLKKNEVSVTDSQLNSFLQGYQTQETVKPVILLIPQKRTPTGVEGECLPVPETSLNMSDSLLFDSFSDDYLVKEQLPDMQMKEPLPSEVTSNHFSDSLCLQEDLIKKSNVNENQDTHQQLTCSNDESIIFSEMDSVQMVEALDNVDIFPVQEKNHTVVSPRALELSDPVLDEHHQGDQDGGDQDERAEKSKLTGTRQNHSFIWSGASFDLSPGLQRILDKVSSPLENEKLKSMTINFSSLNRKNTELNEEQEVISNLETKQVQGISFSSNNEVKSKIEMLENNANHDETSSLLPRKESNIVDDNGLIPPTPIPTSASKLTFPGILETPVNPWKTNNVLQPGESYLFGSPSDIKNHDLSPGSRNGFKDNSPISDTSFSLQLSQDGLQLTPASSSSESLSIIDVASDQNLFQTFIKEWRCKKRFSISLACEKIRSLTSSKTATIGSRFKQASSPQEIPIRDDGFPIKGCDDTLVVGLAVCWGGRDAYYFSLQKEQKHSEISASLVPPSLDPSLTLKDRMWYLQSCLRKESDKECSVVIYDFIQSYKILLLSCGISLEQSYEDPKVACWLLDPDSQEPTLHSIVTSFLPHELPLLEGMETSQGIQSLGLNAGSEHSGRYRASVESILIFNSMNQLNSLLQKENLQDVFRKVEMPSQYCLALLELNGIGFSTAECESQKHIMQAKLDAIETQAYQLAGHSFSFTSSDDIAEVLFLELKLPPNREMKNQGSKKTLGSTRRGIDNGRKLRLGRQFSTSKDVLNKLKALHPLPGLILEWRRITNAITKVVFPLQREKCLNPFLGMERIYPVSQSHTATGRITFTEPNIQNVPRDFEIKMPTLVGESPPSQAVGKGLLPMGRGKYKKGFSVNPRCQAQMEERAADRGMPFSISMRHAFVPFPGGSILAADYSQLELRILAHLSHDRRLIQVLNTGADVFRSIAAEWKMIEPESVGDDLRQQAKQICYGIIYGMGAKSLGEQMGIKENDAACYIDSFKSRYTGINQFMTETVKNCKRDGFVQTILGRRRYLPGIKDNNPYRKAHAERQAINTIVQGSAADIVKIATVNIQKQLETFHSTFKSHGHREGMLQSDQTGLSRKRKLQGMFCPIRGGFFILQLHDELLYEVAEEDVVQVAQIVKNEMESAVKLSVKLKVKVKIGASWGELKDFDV
Description: Flag immunoprecipitation from HEK293T cells with or without 5 Gy IR, western blot [panel C].

For experiment [5], the target named is T5, Flag-RAD50 expressed in HEK293T cells (UniProt Q92878 1-1312, limits assumed).
T5 construct: not shown: Flag tag
T5 sequence (looked up): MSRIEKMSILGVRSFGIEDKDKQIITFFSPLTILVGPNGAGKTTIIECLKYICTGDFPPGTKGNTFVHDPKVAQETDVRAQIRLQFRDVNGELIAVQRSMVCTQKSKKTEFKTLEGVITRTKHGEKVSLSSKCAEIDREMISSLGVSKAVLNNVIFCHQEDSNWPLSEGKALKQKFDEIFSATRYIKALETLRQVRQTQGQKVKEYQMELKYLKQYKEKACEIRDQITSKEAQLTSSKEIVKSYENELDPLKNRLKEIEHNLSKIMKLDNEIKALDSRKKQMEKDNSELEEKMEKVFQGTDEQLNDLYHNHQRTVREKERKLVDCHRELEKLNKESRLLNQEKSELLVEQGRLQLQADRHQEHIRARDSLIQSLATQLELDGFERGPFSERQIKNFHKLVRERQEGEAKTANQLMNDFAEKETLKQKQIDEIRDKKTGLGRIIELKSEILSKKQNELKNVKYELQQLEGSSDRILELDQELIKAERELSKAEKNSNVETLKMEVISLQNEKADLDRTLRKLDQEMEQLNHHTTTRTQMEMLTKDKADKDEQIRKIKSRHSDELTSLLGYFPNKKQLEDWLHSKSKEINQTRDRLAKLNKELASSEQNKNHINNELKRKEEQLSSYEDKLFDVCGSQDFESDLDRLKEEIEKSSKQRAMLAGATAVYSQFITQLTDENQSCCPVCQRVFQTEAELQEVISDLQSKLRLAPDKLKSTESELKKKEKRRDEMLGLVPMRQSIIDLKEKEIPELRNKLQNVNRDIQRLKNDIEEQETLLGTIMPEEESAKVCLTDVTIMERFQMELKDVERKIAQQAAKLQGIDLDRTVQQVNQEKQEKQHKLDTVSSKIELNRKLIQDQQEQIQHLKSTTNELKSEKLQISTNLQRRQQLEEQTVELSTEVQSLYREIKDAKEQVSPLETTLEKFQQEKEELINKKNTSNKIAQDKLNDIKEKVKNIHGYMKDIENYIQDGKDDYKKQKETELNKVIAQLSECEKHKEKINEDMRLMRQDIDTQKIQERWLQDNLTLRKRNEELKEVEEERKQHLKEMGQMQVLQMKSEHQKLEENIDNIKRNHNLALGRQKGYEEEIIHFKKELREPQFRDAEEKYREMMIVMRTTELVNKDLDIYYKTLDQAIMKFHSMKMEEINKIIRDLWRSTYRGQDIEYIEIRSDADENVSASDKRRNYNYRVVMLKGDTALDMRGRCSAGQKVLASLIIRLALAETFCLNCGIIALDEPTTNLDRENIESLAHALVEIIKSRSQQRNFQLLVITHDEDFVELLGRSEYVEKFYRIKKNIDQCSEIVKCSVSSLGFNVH
Description: Flag-M2 immunoprecipitation from HEK293T cells co-transfected with RFP-GRB2, western blot [panel E].

The target of experiment [6] is T6, RPA70, endogenous, in HEK293T cell extracts (UniProt P27694 1-616).
T6 construct: also called RPA1
Description: GST pull-down from HEK293T cell extracts, western blot [panel B].

Some results are limits rather than exact numbers.

B1: GST-fused GRB2 N-terminal SH3 (nSH3) domain (other, UniProt P62993 1-58, looked up)
chain: MEAIAKYDFKATADDELSFKRGDILKVLNEECDQNWYKAELNGKDGFIPKNYIEMKPH
notes: domain: N-terminal SH3 (nSH3); not shown: glutathione S-transferase (GST)
Turning to B1, the binding result in experiment [1] is “no binding”.

B2: MRE11 peptide WVNYQDGNLN (peptide)
peptide: WVNYQDGNLN
Take B2: the dissociation constant (Kd) was greater than 200 µM in experiment [2] and 33 µM in experiment [3].

B3: MRE11, endogenous, in extracts of human cell lines (HEK293T, HeLa, U2OS) (enzyme, UniProt P49959 2-708, looked up)
chain: STADALDDENTFKILVATDIHLGFMEKDAVRGNDTFVTLDEILRLAQENEVDFILLGGDLFHENKPSRKTLHTCLELLRKYCMGDRPVQFEILSDQSVNFGFSKFPWVNYQDGNLNISIPVFSIHGNHDDPTGADALCALDILSCAGFVNHFGRSMSVEKIDISPVLLQKGSTKIALYGLGSIPDERLYRMFVNKKVTMLRPKEDENSWFNLFVIHQNRSKHGSTNFIPEQFLDDFIDLVIWGHEHECKIAPTKNEQQLFYISQPGSSVVTSLSPGEAVKKHVGLLRIKGRKMNMHKIPLHTVRQFFMEDIVLANHPDIFNPDNPKVTQAIQSFCLEKIEEMLENAERERLGNSHQPEKPLVRLRVDYSGGFEPFSVLRFSQKFVDRVANPKDIIHFFRHREQKEKTGEEINFGKLITKPSEGTTLRVEDLVKQYFQTAEKNVQLSLLTERGMGEAVQEFVDKEEKDAIEELVKYQLEKTQRFLKERHIDALEDKIDEEVRRFRETRQKNTNEEDDEVREAMTRARALRSQSEESASAFSADDLMSIDLAEQMANDSDDSISAATNKGRGRGRGRRGGRGQNSASRGGSQRGRADTGLETSTRSRNSKTAVSASRNMSIIDAFKSTRQQPSRNVTTKNYSEVIEVDESDVEEDIFPTTSKTDQRWSSTSSSKIMSQSQVSKGVDFESSEDDDDDPFMNTSSLRRNRR
As for B3, the binding result in experiment [4] and in experiment [5] was “binds” in each case.

B4: GST-fused GRB2 C-terminal SH3 (cSH3) domain (other, UniProt P62993 156-217, looked up)
chain: QQPTYVQALFDFDPQEDGELGFRRGDFIHVMDNSDPNWWKGACHGQTGMFPRNYVTPVNRNV
notes: domain: C-terminal (cSH3); not shown: glutathione S-transferase (GST)
Consider B4, for which the binding result in experiment [6] is recorded as “no binding”.

As usually defined, the Kd is the equilibrium constant for the complex coming apart.
